Two proteins from PMC10815921, “Mimicking Protein Kinase C Phosphorylation Inhibits Arc/Arg3.1 Palmitoylation and Its Interaction with Nucleic Acids” (International Journal of Molecular Sciences, 2024) can be followed below.

Data set [1] deals with the molecule itself. The data set is described as follows: dynamic light scattering; ~20 µM, 25 °C, 20 mM HEPES pH 7.5, 100 mM NaCl, 1 mM TCEP; Arc^WT was ammonium sulfate-treated (nucleotide-free).
Data set [2] concerns the molecule itself. The data set is described as follows: SEC; HiLoad 16/600 Superdex 200, solution B (20 mM HEPES pH 7.5, 100 mM NaCl, 0.5 mM TCEP), 4 °C; proteins prepared without ammonium sulfate treatment (bound nucleic acids kept); loads 25-70 µM.

B1: Arc S84,90E phosphomimetic mutant (natural protein, mouse, UniProt Q9WV31 1-396, looked up)
chain: MELDHMTTGGLHAYPAPRGGPAAKPNVILQIGKCRAEMLEHVRRTHRHLLTEVSKQVERELKGLHRSVGKLENNLDGYVPTGDEQRWKKEIKACLCRCQETIANLERWVKREMHVWREVFYRLERWADRLESMGGKYPVGSEPARHTVSVGVGGPEPYCQEADGYDYTVSPYAITPPPAAGELPEQESVEAQQYQSWGPGEDGQPSPGVDTQIFEDPREFLSHLEEYLRQVGGSEEYWLSQIQNHMNGPAKKWWEFKQGSVKNWVEFKKEFLQYSEGTLSREAIQRELELPQKQGEPLDQFLWRKRDLYQTLYVDAEEEEIIQYVVGTLQPKLKRFLRHPLPKTLEQLIQRGMEVQDGLEQAAEPSGTPLPTEDETEALTPALTSESVASDRTQPE
notes: Arc (Arg3.1), mouse, with serines 84 and 90 mutated to glutamic acid; source: E. coli Rosetta 2, purified (glutathione resin, released with TEV protease); not shown: GST, N-terminal, cleaved
For B1, the binding result in data set [1] is recorded as “binds”.

B2: Arc ΔH1 (aa 33–70 deleted) (natural protein, mouse, UniProt Q9WV31 1-396, looked up)
chain: MELDHMTTGGLHAYPAPRGGPAAKPNVILQIGLENNLDGYVPTGDSQRWKKSIKACLCRCQETIANLERWVKREMHVWREVFYRLERWADRLESMGGKYPVGSEPARHTVSVGVGGPEPYCQEADGYDYTVSPYAITPPPAAGELPEQESVEAQQYQSWGPGEDGQPSPGVDTQIFEDPREFLSHLEEYLRQVGGSEEYWLSQIQNHMNGPAKKWWEFKQGSVKNWVEFKKEFLQYSEGTLSREAIQRELELPQKQGEPLDQFLWRKRDLYQTLYVDAEEEEIIQYVVGTLQPKLKRFLRHPLPKTLEQLIQRGMEVQDGLEQAAEPSGTPLPTEDETEALTPALTSESVASDRTQPE
notes: Arc (Arg3.1), mouse, lacking helix H1 (residues 33-70); Made by PCR from the full-length GST-Arc construct; source: E. coli Rosetta 2, purified (glutathione resin, released with TEV protease; with or without 35% ammonium sulfate precipitation); not shown: GST, N-terminal, cleaved
As to B2, the binding result in data set [2] is on record as “binds”.
